Assay results as given in patent US10413588B2, “Probiotic function of human intelectin” (Wisconsin Alumni Research Foundation, priority 2015, dated 2019).

Columns and labels:
[1] = hIntL-1 carbohydrate binding ELISA-like assay; details: ligands other than β-Galf
Protocol: To fabricate carbohydrate-displaying surfaces, 0.5 μg of streptavidin (Prozyme, cat. no. SA20) was adsorbed onto a Maxisorp (Nunc) flat bottom 96 well plate in PBS. Wells were washed with PBS and then coated with 5 μM of carbohydrate-biotin ligand in PBS for 1 hour at 22° C. Wells were blocked with bovine serum albumin (BSA) in ELISA buffer (20 mM HEPES (7.4) 150 mM NaCl, 10 mM CaCl2, and 0.1% tween-20). Samples containing hIntL-1 were prepared by serial dilution into ELISA buffer+0.1% BSA and added to wells for 2 hours at 22° C. Wells were washed four times with ELISA buffer. Bound hIntL-1 was detected using 0.75 μg/mL of a sheep IgG hIntL-1 antibody (R&D Systems, cat. no. AF4254) in ELISA buffer+0.1% BSA for 2 hours at 22° C. Wells were washed with ELISA buffer. A donkey anti-sheep IgG horseradish peroxidase (HRP) conjugate (Jackson ImmunoResearch Laboratories) was added at a 1:5,000 dilution in ELISA buffer+0.1% BSA for 1 hour at 22° C. Wells were washed and hIntL-1 was detected colorimetrically with addition of 1-Step Ultra TMB-ELISA (Pierce). Once sufficient signal was achieved (typically <2 min.), the reaction was quenched with addition of equal volume 2 M H2SO4. Plates were read at 450 nm on an ELx800 plate reader (Bio-Tek). When testing the Ca^2+ dependency of hIntL-1, 1 mM EDTA replaced 10 mM CaCl2 in all steps. Data were analyzed on Prism6 (GraphPad). […]

Bifidobacterium dentium = assay: Flow cytometry binding to microbiome strain; details: fixed cells; 15 μg/mL Strep-tagged-hIntL-1, 10 mM CaCl2 vs EDTA control
Protocol: (§1) The inventors have begun to examine the binding of hIntL-1 to bacteria known to reside in the human intestine. Strains of relevant bacteria were grown anaerobically. The samples are fixed using 1% formaldehyde for 30 min on ice. […] Fixed cells are exposed to Strep-tagged (IBS Lifesciences) -hIntL-1. The Strep-tag not necessary for function but added because it facilitates purification and detection. Cells were analyzed by flow cytometry on a BD FACSCalibur or LSRII. Bacterial cells were identified using either propidium iodide (PI) or DAPI. An anti-Strep-tag antibody conjugated to the fluorophore Oyster 645 nm was used to detect the population of bacteria bound by hIntL-1.
(§2) To determine whether observed binding is dependent on hIntL-1 interaction with microbial glycans, the inventors take advantage of critical role of calcium ions in hIntL-1 binding. The addition of the calcium ion chelator EDTA, which sequesters bound calcium ions, serves as an important specificity control. Fixed bacteria are incubated in 20 mM HEPES (pH 7.2), 150 mM NaCl, 10 mM CaCl2, 15 μg/mL Strep-tagged-hIntL-1, 0.1% bovine serum albumin (BSA), 0.05% Tween-20, 2 μg/mL StrepMAB-Classic conjugated to Oyster 645 (IBA Lifesciences, cat. no.: 2-1555-050). For the cells incubated in the absence of calcium ions, the following solution is used 20 mM HEPES (pH 7.2), 150 mM NaCl, 5 mM EDTA, 15 μg/mL Strep-tagged-hIntL-1, 0.1% bovine serum albumin (BSA), 0.05% tween-20, 2 μg/mL StrepMAB-Classic conjugated to Oyster 645 (IBA Lifesciences, cat. no.: 2-1555-050). Cell samples were analyzed by flow cytometry consecutively using an identical instrument setting. The percentages of unstained cells, cells stained in the presence of calcium ions, and cells stained in the presence of EDTA were directly compared. Increased hIntL-1 binding signal in the presence of calcium ions when compared to unstained cells or the EDTA sample indicates specific binding to the surface glycans of that strain of bacteria. FIG. 17 is representative of the data obtained. A list of bacteria bound by hIntL-1 can be found in Table 1. […]

[2] = tested on: Bacteroides xylanisolvens; assay: Flow cytometry binding to microbiome strain; details: fixed cells; 15 μg/mL Strep-tagged-hIntL-1, 10 mM CaCl2 vs EDTA control
Protocol: as §1, §2

Lactobacillus reuteri = assay: Flow cytometry binding to microbiome strain; details: fixed cells; 15 μg/mL Strep-tagged-hIntL-1, 10 mM CaCl2 vs EDTA control
Protocol: as §1, §2

[3] = hIntL-1 carbohydrate binding ELISA-like assay
[4] = CFG mammalian glycan array v5.1; assay type: binding; details: hIntL-1 at 50 and 200 μg/ml
[5] = Microbial Glycan Microarray (MGMv2); assay type: binding, S. pneumonia; details: Strep-hIntL-1 50 μg/mL; α-Galf containing glycan
Protocol: Strep-hIntL-1 was used to interrogate the Microbial Glycan Microarray version 2 (MGMv2). Construction of the MGMv2 is previously described. Briefly, bacterial polysaccharide samples were dissolved and diluted to 0.5 mg/mL in printing buffer (150 mM sodium phosphate buffer (8.4)+0.005% Tween-20). Samples were immobilized on NETS-activated glass slides (SlideH, Schott/Nexterion) using a MicroGrid II (Digilab) contact microarray printer equipped with SMP-4B printing pins (Telechem). Six replicates of each bacterial glycan sample were printed. Covalent coupling of glycans to the surface was facilitated by incubation for 1 hour postprint at 100% relative humidity. The remaining reactive NHS-moieties were quenched using a blocking solution (50 mM ethanolamine in 50 mM borate buffer (9.2)). Blocked slides were stored at −20° C. until assays were performed. […] The Strep-Tag® II on bound hIntL-1 was detected using StrepMAB-Classic Chromeo647 (10 μg/mL, IBA GmbH Lifesciences) diluted in binding buffer applied directly to the array surface and allowed to incubate for 1 hour. […] Signal data was calculated as the average of 4 values after removing the high and low values of the 6 replicates. Data were plotted using Excel (Microsoft) as average Relative Fluorescence Units (RFU) versus print identification number. […]

B1: hIntL-1: human lectin intelectin-1, accession no. Q8WWA0; recombinant disulfide-linked trimer from HEK 293T cells, used also N-terminally Strep-tagged (Strep-hIntL-1) (protein, listed as Homo sapiens)
chain: MNQLSFLLFLIATTRGWSTDEANTYFKEWTCSSSPSLPRSCKEIKDECPSAFDGLYFLRTENGVIYQTFCDMTSGGGGWTLVASVHENDMRGKCTVGDRWSSQQGSKAVYPEGDGNWANYNTFGSAEAATSDDYKNPGYYDIQAKDLGIWHVPNKSPMQHWRNSSLLRYRTDTGFLQTLGHNLFGIYQKYPVKYGEGKCWTDNGPVIPVVYDFGDAQKTASYYSPYGQREFTAGFVQFRVFNNERAANALCAGMRVTGCNTEHHCIGGGGYFPEASPQQCGDFSGFDWSGYGTHVGYSSSREITEAAVLLFYR
binding to other immobilized carbohydrate ligands [1]: not detected
binding of hIntL-1 to Bifidobacterium dentium by flow cytometry (Bifidobacterium dentium): binds
binding of hIntL-1 to Bacteroides xylanisolvens by flow cytometry [2]: not
binding of hIntL-1 to Lactobacillus reuteri by flow cytometry (Lactobacillus reuteri): binds
binding to β-Galf on addition of EDTA ([3]; hIntL-1 conditioned HEK culture media, addition of 25 mM EDTA): completely abolished binding
Kd ([3]; trimeric hIntL-1, ELISA-like assay, 10 mM CaCl2, read-out: avidity (apparent Kd) for immobilized β-Galf): 85 ± 14 nM
binding to human glycan ligands on CFG mammalian glycan array [4]: none are bound by hIntL-1 with appreciable affinity
average signal on microbial glycan array [5]: −9.6 RFU
